The supplement of paper PMC10724198
± gives the standard deviation of the averaged measurements.

What was measured:
[1] = system: Saccharomyces cerevisiae; test: protein stability index of tFT-peptide fusion (C-terminal peptide) (PSI (0-1 scale)); higher = more stable (slower turnover)
Method: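 MPS profiling in S. cerevisiae of the tFT-X12 degron library: putative degron peptides plus stable controls, 12 aa, fused to the C-terminus of a sfGFP-mCherry timer. Cells are FACS-sorted into 8 mCherry/sfGFP bins and deep-sequenced. PSI runs from 0 (unstable) to 1 (stable). Backgrounds are wild type, das1Δ and doa10Δ at 30 °C, and wild type, das1Δ, cdc34-1 and cdc53-1 at 37 °C; 2-3 technical replicates each.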

[2] = system: Saccharomyces cerevisiae; test: as above; details: genetic background: wild type; temperature: 30 C
[3] = genetic background: cdc34-1, temperature: 37 C
[4] = genetic background: cdc53-1, temperature: 37 C
[5] = genetic background: das1 deletion, temperature: 30 C
[6] = genetic background: das1 deletion, temperature: 37 C
[7] = genetic background: doa10 deletion, temperature: 30 C
[8] = genetic background: wild type, temperature: 30 C
[9] = genetic background: wild type, temperature: 37 C
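Note: PSI is a weighted mean of sequencing reads over stability bins, variants kept only with over 10 reads, mCherry proximal and sfGFP distal, peptide attached via GGGS linker.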

Sequence	protein stability index [1, 3]	protein stability index [1, 4]	protein stability index [1, 5]	protein stability index [1, 6]	protein stability index [1, 7]	protein stability index [1, 8]	protein stability index [1, 9]	protein stability index [2]
PLPSEKAPTLLL	0.686 ± 0.019	0.735 ± 0.01	0.637 ± 0.0092	0.736 ± 0.036	0.636 ± 0.027	0.6384 ± 0.0045	0.718 ± 0.0072	0.583 ± 0.15
PLPSFLYFILLR	0.22 ± 0.062	0.196 ± 0.024	0.333 ± 0.03	0.396 ± 0.024	0.524 ± 0.035	0.357 ± 0.012	0.359 ± 0.044	0.44 ± 0.079
PLRKYLRHLLSL	0.59822 ± 0.00032	0.7453 ± 0.0022	0.647 ± 0.022	0.735 ± 0.036	0.1635 ± 0.0013	0.159 ± 0.012	0.285 ± 0.0041	0.218 ± 0.055
PLRRPPPRPPWP	0.65 ± 0.025	0.7054 ± 0.0032	0.674 ± 0.024	0.7032 ± 0.003	0.69 ± 0.03	0.644 ± 0.025	0.687 ± 0.011	0.494 ± 0.036
PLSPTNLSRLLS	0.658 ± 0.034	0.7642 ± 0.0043	0.651 ± 0.012	0.744 ± 0.0077	0.1987 ± 0.0011	0.234 ± 0.037	0.526 ± 0.033	0.339 ± 0.015
PPGSPPGSLRPT	0.67 ± 0.038	0.715 ± 0.027	0.664 ± 0.026	0.713 ± 0.013	0.662 ± 0.029	0.665 ± 0.036	0.703 ± 0.013	0.78 ± 0.025
PPHRTLLQLRTN	0.599 ± 0.072	0.728 ± 0.035	0.661 ± 0.022	0.727 ± 0.0085	0.169 ± 0.021	0.164 ± 0.02	0.313 ± 0.015	0.343 ± 0.18
PPPAPPLSMPAP	0.647 ± 0.064	0.73 ± 0.027	0.665 ± 0.014	0.718 ± 0.026	0.671 ± 0.021	0.681 ± 0.022	0.6928 ± 0.0055	0.0173 ± 0.0038
PPPLCSTCIRCC	0.197 ± 0.035	0.206 ± 0.038	0.224 ± 0.027	0.354 ± 0.0097	0.175 ± 0.0021	0.205 ± 0.019	0.274 ± 0.013	0.293 ± 0.0083
PPQDQAPVGVND	0.672 ± 0.041	0.7509 ± 0.0024	0.619 ± 0.019	0.74 ± 0.0071	0.623 ± 0.03	0.644 ± 0.038	0.7007 ± 0.0022	0.474 ± 0.064
PPRCLLPPPSRS	0.652 ± 0.034	0.699 ± 0.014	0.694 ± 0.015	0.693 ± 0.0092	0.72 ± 0.05	0.692 ± 0.012	0.678 ± 0.009	0.79 ± 0.015
PPRDPGGLFTPF	0.732 ± 0.017	0.7854 ± 0.0062	0.679 ± 0.0077	0.7763 ± 0.003	0.703 ± 0.022	0.674 ± 0.028	0.767 ± 0.039	0.71756 ± 0.00059
PPSPAPLPDSLP	0.662 ± 0.036	0.6995 ± 0.0011	0.684 ± 0.038	0.715 ± 0.017	0.693 ± 0.015	0.691 ± 0.021	0.696 ± 0.0075	0.7006 ± 0.0066
PPSPPLLFHFPP	0.669 ± 0.049	0.756 ± 0.013	0.661 ± 0.0077	0.7367 ± 0.005	0.661 ± 0.022	0.658 ± 0.018	0.7058 ± 0.007	0.586 ± 0.15
PPTLLPPLHPAP	0.681 ± 0.056	0.725 ± 0.0045	0.663 ± 0.011	0.7217 ± 0.005	0.666 ± 0.028	0.688 ± 0.038	0.731 ± 0.023	0.64 ± 0.23
PTLPASLHSIYP	0.654 ± 0.03	0.72 ± 0.031	0.684 ± 0.028	0.698 ± 0.021	0.687 ± 0.03	0.6731 ± 0.0056	0.6917 ± 0.0027	0.768 ± 0.024
PTYSCSIKIQAH	0.539 ± 0.037	0.537 ± 0.037	0.407 ± 0.03	0.5503 ± 0.0049	0.339 ± 0.01	0.366 ± 0.022	0.517 ± 0.02	0.427 ± 0.031
PWGSHLYYVVCI	0.168 ± 0.026	0.228 ± 0.011	0.238 ± 0.03	0.3371 ± 0.0028	0.183 ± 0.013	0.221 ± 0.035	0.315 ± 0.016	0.339 ± 0.023
PWWDALLRARVC	0.429 ± 0.033	0.6 ± 0.054	0.435 ± 0.021	0.625 ± 0.019	0.103 ± 0.013	0.115 ± 0.022	0.159 ± 0.0039	0.163 ± 0.025
